# Reference: publication PMC9609006
# B1: HorGH1 (Halothermothrix orenii H 168; E166A/E354G/M299R) (protein)
# chain: MAKIIFPEDFIWGAATSSYQIEGAFNEDGKGESIWDRFSHTPGKIENGDTGDIACDHYHLYREDIELMKEIGIRSYRFSTSWPRILPEGKGRVNQKGLDFYKRLVDNLLKANIRPMITLYHWDLPQALQDKGGWTNRDTAKYFAEYARLMFEEFNGLVDLWVTHNAPWVVAFEGHAFGNHAPGTKDFKTALQVAHHLLLSHGMAVDIFREEDLPGEIGITLNLTPAYPAGDSEKDVKAASLLDDYINAWFLSPVFKGSYPEELHHIYEQNLGAFTTQPGDMDIISRDIDFLGINYYSRRVVRHKPGDNLFNAEVVKMEDRPSTEMGWEIYPQGLYDILVRVNKEYTDKPLYITGNGAAFDDKLTEEGKIHDEKRINYLGDHFKQAYKALKDGVPLRGYYVWSLMDNFEWAYGYSKRFGLIYVDYENGNRRFLKDSALWYREVIEKGQVEAN
# B2: HorGH1 (Halothermothrix orenii H 168; E166A/E354G) (protein)
# chain: MAKIIFPEDFIWGAATSSYQIEGAFNEDGKGESIWDRFSHTPGKIENGDTGDIACDHYHLYREDIELMKEIGIRSYRFSTSWPRILPEGKGRVNQKGLDFYKRLVDNLLKANIRPMITLYHWDLPQALQDKGGWTNRDTAKYFAEYARLMFEEFNGLVDLWVTHNAPWVVAFEGHAFGNHAPGTKDFKTALQVAHHLLLSHGMAVDIFREEDLPGEIGITLNLTPAYPAGDSEKDVKAASLLDDYINAWFLSPVFKGSYPEELHHIYEQNLGAFTTQPGDMDIISRDIDFLGINYYSRMVVRHKPGDNLFNAEVVKMEDRPSTEMGWEIYPQGLYDILVRVNKEYTDKPLYITGNGAAFDDKLTEEGKIHDEKRINYLGDHFKQAYKALKDGVPLRGYYVWSLMDNFEWAYGYSKRFGLIYVDYENGNRRFLKDSALWYREVIEKGQVEAN
# Assays:
# [1] = substrate: O=[N+]([O-])c1ccc(S)cc1; test: purified protein; conditions: thioglycosynthase reaction; thiol acceptor; donor α-D-glucopyranosyl fluoride
# [2] = substrate: OC[C@H]1O[C@H](F)[C@H](O)[C@@H](O)[C@@H]1O; test: purified protein; conditions: thioglycosynthase reaction; glycosyl donor; thiol acceptor p-nitrothiophenol
protein,measurement,setting,value
B1,Km,[1],3.82 mM
same,Km,[2],2.26 mM
B2,Km,[1],7.46 mM
same,Km,[2],2.12 mM
